According to the DeepSol protein solubility set:

assay: soluble on expression in E. coli; label from the status in PepcDB or PDB records

Soluble on expression in E. coli, not soluble:
MGSDKIHHHHHHMRKDISTNDKDINDLFLKVVDLVTQARERVATAINIAEVFTKFHIGQYIVEYEQKGETRAEYGKAVLKELSKRLTDRLGDGWSYSTLKNIRQFYIVFSKGLTSGCPKSSQKANQWLADYSKAEEHISEPTFALSWSHYLILMRVENPDARSFYEIECTQQQWSKRQLSRQVGSCLYERLALSRNKDEVMRLAKEGQTIGKPSDIIKNPITLEFLGLKPDAVYSESKLENAIINKMQQFLLELGKGFLFEARQKRFTFDEQHFFVDLVFYNRLLQCYVLIDLKIDKLTHQDLGQMQMYVNYYDRYVKQDFEKPTIGILLCKEKNDALVELTLPKDANIYASAYQLYLPNKALLQAKVKEWIEEFEENEELKKLEENE
MGSDKIHHHHHHMRKITLRSKLDGREIVFEENQNLFDIAREYQKYYRYKILAARVNNRIIELFRTPDRSGELEFLDLTDPDGLRIYQRGLVFLASLAVRKLNSEWRLKVLHSLGKGIYCEIYKGNELIVPDQNQVFAIKDKMRELVEKDLPIEKRTFYKDEAREILMKEGLVKTVNLFKYRKKRTVKLYHCDGFWAYFYGYLPPSTGRIDVFDVQPYNQGLVLVHPDPKTRELPVIHMPKLSQVFLEYARWLNVLELEYVSDLNDIIARGERHVADLMLLSEALHEKKISDIADEIAKDKRKRLILIAGPSSSGKTTFAKRLSLQLRVNGLKPVAISLDDYFVDREKTPRDENGNYDFDSIEALDIELFNRNLQDLLAGKEVVLPKFNFKTGKRMRGPTLKLEKDNIIIVEGIHGLNERLTASIPKEQKFKIYVSALTQLNIDDHNRVTTTDTRLIRRIVRDYKFRGHTAYDTLKMWPNVRKGEERNIFPFQEEADVMFNSALVYEIPVLRIFAEPLLVQVPEDVPEYSEALRLLKLLDFFLPITNIEDIPDKSILREFIGRSIFKY
MGSDKIHHHHHHMRMAQVVLENVTKVYENKVVAVKNANLVVEDKEFVVLLGPSGCGKTTTLRMIAGLEEITDGKIYIDGKVVNDVEPKDRDIAMVFQNYALYPHMTVYENMAFGLKLRKYPKDEIDRRVREAAKILGIENLLDRKPRQLSGGQRQRVAVGRAIVRNPKVFLFDEPLSNLDAKLRVQMRSELKKLHHRLQATIIYVTHDQVEAMTMADKIVVMKDGEIQQIGTPHEIYNSPANVFVAGFIGSPPMNFVNARVVRGEGGLWIQASGFKVKVPKEFEDKLANYIDKEIIFGIRPEDIYDKLFALAPSPENTITGVVDVVEPLGSETILHVKVGDDLIVASVNPRTQAKEEQKIDLVLDMTRMHAFDKETEKAII
MGSDKIHHHHHHMRNASIEQYDATPRAVVAMGTDYPDGYLLPRHRHRRAQLLYGASGVMQVRTGDAGWVVPPQRAVWIPPGVEHEVRMLGVSTRSLYIEPGSAMAMPAHCQVLAVSPLLRQLLLAAVDMPLEYDTEGRDGALATLLLHELAAAETLPLHVPLPPEPRWLALCEAFLVEPDIRASAERWAGLLHTSLRSFNRTFRRYTGLSFGAWKQRACVVQALARLAGGETVTAIALDCGYQSPAAFSTMFRRVLGQPPSAFQAGALRSPGGP
MGSDKIHHHHHHMRNCIIAQSGGPTAVINASAVGIYEKNLETKYFDKVYFGINGIEGILNKNIIDSDSLNKDNVLNLKQTPSSGLGSCRYKLADYKINSYDYDRVINILDEYEIDTLFYIGGNDSMDTVMKFSQYCKNTTCKIKFIGIPKTIDNDLLGTDNCPGFGSAAKLISTLIMETYLDFSIYKNNGIFIVETMGRDTGWLAASSSLARLNDTPLVDLIYLPEIDFYEDKFIEDVRKIFKEKNKAYIVASEGIRDKYGNFICEQKTSAHDKFGHSQLGGVSNYLKNLIVSSSITTRVKTLELGVIQRCAMHLASDTDLKQAAEVGAYGIELSKKGYTGVMAIINRTCNNPYKYEVSHTDISKIANKTKYFPKEWINEECNYITDEALNYLYPLIQGKPDIKYKNGLPYFSIIY
MGSDKIHHHHHHMRPKILFVVNVDWFFVSHRLPIAVAAQNVGYDVHIACQVTDKKQELEGYGFTVHSISLDRSGTSVLKEFQTMLSIYRLIKKISPALMHMITVKPVIYAGIAARILGVSKVASISGLGFIFIAEGFKSKLLKSLITILYKLALNDGKSRVIFQNDSDKGLFIRRGIISDSNTLLVRGSGVDLDKYQVKPEPESYPVIVLLARLLIDKGVLEFVQAAEILKSKGVPCKMVLAGDTDENPKSVSKNQITDWVNKGIVEYWGYSKDVNSTYANCHIAVLPSYREGLPKSLIEAAACGRAVITTDVPGCRDAITPNKTGLLVPVKSSLELALAIETLCNDSKLRQSLGQEGRQLAEQAFDIKSVIQIHLNLYADLLKGKPSV
MGSDKIHHHHHHMRRDTFAGRRTQQPACQIHRFARTDKCYRHQKNPAERRHFGLSQCPHRESIVFVYTKMYILLMDVDRVQVRAFRANIAEYLEQALQGQRIVIERHGGPVAALVPLADLYQITRKEKAMGHRIALNNVSGGEGKTFLTFHLAFALADLGFRVAVLDCDPQASLTKRFGLHDEEGAHQSGAETILPVFEVDDDPALPSPVTVEGIDVWPANRQLIDADTRIMTNMMRLGNLGEALDRIQDQYDFILLDTRPNVSPLLTASTAAARLFLVPIGAHKGLENLDELLRLVKLARKQDRSARIAFFIPNKVTSTRMGKNVLQSISAYTEVAPISPPVRQATIGPEAELFRTGITRHAPKSPLAGDIRTLANALVKATEQVEDAQ
MGSDKIHHHHHHMRRKIPSSASLQAFDAAARHGNFARAAEELSLTEGAISRQIARLEALLNCKLFDRMGSRVKLNPVGAHYAHHVRETLDRLERDTQYIMGMPEGSKSLDIAVLPTFSNRWLIPRLSGFNSLFPDITLNIAARTDPFILPGSGFDAVIHFEHSAWTGMRMQFLFQENLLPVCNPALLTNNDVNRQLNELPRIHRRQNPEAWHHYARESGIRLDNPAQGVRYDLHEMTIAAVIAGHGVALVPRMYVENELSCGMLVSPWPASDCLSKKFCLVKPMETGINEDALESFERWLLAEMNTLTSLNAER
MGSDKIHHHHHHMRRVSIYELDPGMIVARAIFNSEERVLLHAGVELNEKYIHGLQKAGVMSVYIRDELFDESDAVSDIISEKTRLKAIRTLKESFNLLEKKHQLNLHAVKNTVDEIIDEIIANPNTLVSLTDIRSFDDYTYAHSVNVGVLSIMSGVSLNYERSQLKELGVGALLHDIGKIKIDKNILNKPDDLSPEEFTEIKQHSKAGFDILRQHSGLSLLSAHIAFQHHERWDGQGYPRQLSGEEIHEYARIVAVADVYDALVADRPYRPAYSVTQAISILKRMTGLFLDPQCVKAFLNNIAVYPLGCLLELNTGELGAVIDINRKTPAQPVVRVLYDRNWRLLTPYELDLSKNSALVVKNVLSERQIKELKKNL
MGSDKIHHHHHHMRTDMTIEQNKNRRSAASGCAIHCHDCSMGTLCIPFTLNANELDQLDDIIERKKPIQKGEQIFKSGDPLKSLFAIRSGTIKSYTITEQGDEQITGFHLAGDVIGFDGIHAQSHQSFAQALETSMVCEIPFNILDELSGTMPKLRQQIMRLMSNEIMSDQEMILLLSKKNAEERLAAFISNLANRFGNRGFSAKEFRLTMTRGDIGNYLGLTVETISRLLGRFQKSGLIEVKGKYIIIVDHHELNLLAGNARIAR
MGSDKIHHHHHHMRTHGWNSTCVNRPSGSANSRRLVAHGNGWQTIDMDFAARYVALGDSFTEGVGDDDPARPNGVRGWADRVAEQLGAADPAFGYANLAIRGRKLRQIMAEQVDAAIELKPTLVTIYAGANDILRPKVDIDDLLAEYDAGIRKLSATGATVVMFTGFDARGSKVFGTMRGRTAIYNELVRGIAGDHGALLVDYWRFSEYYDWGMWAKDRMHMSAAGHANMAKRVLTVLEHDHSIDVPPMTPVPELSRADAIRANARWVREFAGPWVVRRVTGKSSGDGLQPRYSQLTRL
MGSDKIHHHHHHMRVNSTDLQNAFGKYLSLLEKEDIIITKNGRSVAKLLRYNEPDYFLVHEESKNYKTTKRISYEEYMDLVDSSDQRYELIDGENYLLATPSFKHQVVVNEISGHFYNYFRGKSCRSLTSPFDVRLFGFATKFEEDPNVVQPDVVVICDLDKINEANKYEGIPSLIVEVLSPSTKGKDMVMKLNLYMKSGVLEYWVVDMESKSILQYSFSPERDIDSLKSLGEEDTIESSAFAGLKILLGEIFAEI
MGSDKIHHHHHHMRYQNTYAQLDTRLYHEQLPNPLDNPRAGHFNNQVADQLGWTKAADLMARWVEILGGQYVPAEFQPLSMAYAGHQFGQWAGQLGDGRGLLMTQVLDKNNQLQDLHLKGAGLTPYSRMGDGRAVLRSTIREYLCGHALTQLGIASSNALGFVVSDTKVRRERLEAGAALMRVADSHIRLGHVEWIASFAPDLLAEFTDYMIDTYYPECRDSEKPVLAFLQAVVERTARMIADWQLIGFAHGVMNTDNLSITGSTLDFGPFGFMERFNPAWINNHSDHSGRYAYQNQPAIGHWNLNVWLPHFMRLTQAGVTRETLADCLAPYEATFMQHYQQGLCRKLGLPHQRESLSLAFEWLTLLEDNLLDYTNSFRALLGLIAPNEHLYEQQLLATMTAELNPEAQQVWQVWSTRYLAQIQQVSITQAIEEMQASNPIYILRNSMAQRVIVAAEQGQFEELNRVFDLLAKPYTLQDSAIELDTLPPAPHAPQMPISCSS
MGSDKIHHHHHHMSAELNQPVPRPGILDIAAYVPGKEHVDGVAKVYKLSSNETPLGPSPKAIEAFSAAASHLEIYPDGQAIALRQAIADVHGLNIANILCGNGSDELLGLLCHVYLGAGDEAIITEHGFLVYKIQIMGAGATPVTVKEKDCVVDVDAILAAVTPKTKMVFLANPGNPTGTYVPVAEIRRLQAGLPKHVVLVLDAAYAEYVRKNDYEAGLELVSGNRNVVMTRTFSKVYGLAALRVGWMYAPVDIIDALNRVRGPFNMSAPAIAAGAAAIRDQAFVQKAVAHNALWMEKLVTTFTGLGLTVTPSVANFILIHFPDQDGKRATDADEFLSRRGYILRAVRGYGFPNALRMTVGSEEANLGVIAALTEFMGQA
MGSDKIHHHHHHMSAPTPLAEASQIPTIPALSPLTAKQSKGNFFSSNPISSFVVDTYKQLHSHRQSLELVNPGTVENLNKEVSRDVFLSQYFFTGLRADLNKAFSMNPAFQTSHTFSIGSQALPKYAFSALFANDNLFAQGNIDNDLSVSGRLNYGWDKKNISKVNLQISDGQPTMCQLEQDYQASDFSVNVKTLNPSFSEKGEFTGVAVASFLQSVTPQLALGLETLYSRTDGSAPGDAGVSYLTRYVSKKQDWIFSGQLQANGALIASLWRKVAQNVEAGIETTLQAGMVPITDPLMGTPIGIQPTVEGSTTIGAKYEYRQSVYRGTLDSNGKVACFLERKVLPTLSVLFCGEIDHFKNDTKIGCGLQFETAGNQELLMLQQGLDADGNPLQALPQL
MGSDKIHHHHHHMSASLQTADRVRRWRIEGELTTRTPLHMGSGSFEARQELRRAPQTDDIAKAKAVLLDSDQRPCLTGSGLKGAMLAWANAYLPDPERDRLLFGCEPDGDGKGQGGRLEFQTAFLSQNKENTSPSSSPTPFWMSDRRTDVDTGVRINRASGTALDKHLFYKEVVAPGTAFRMVLDLDLPACCTDKGHALVNRVLALLEAFNLSDDDRVPPLTLGAMTGRGHGRFAWRLTNLSRVTDASARTWIDKGAPGTWAAALTPVPDKGPWQTTAKATLEVVQSPATLVCEVTLTFDHRFLISEPARVVTEDEARTRSGKTRTAGIMPKVDGKGNAVLPTASIKGVLRSRAERILATLTGDASAFEHAPGRGPAGQDNPAADMMTDRCLPTSRLFGAASWRAALDVEPFRPLSGHTTVAHQELVAIDRFTGGVSGSAKYDIDAFHRPQFKGRLRLNLRRSRLEDVGLLVLLLRDLAEGDLSFGYGGTKGYGGTQAMVTVQVRGTTAGTQALPLPEETGGAGIDTPVSWSSIQDSALASPLREAVAAFRRLYCKGEAV
